Molecular target: T1, 人PDL1蛋白 (human, UniProt Q9NZQ7 19-239, limits assumed)
T1 construct: Bought recombinant protein; also called human PDL1; B7-H1
Assay: non-competitive ELISA, four coating concentrations of PDL1 (1, 0.5, 0.25, 0.125 ug/mL), KA=(n-1)/(nAb'-Ab), mean of 6 values

T1 sequence (Q9NZQ7 19-239 limits assumed): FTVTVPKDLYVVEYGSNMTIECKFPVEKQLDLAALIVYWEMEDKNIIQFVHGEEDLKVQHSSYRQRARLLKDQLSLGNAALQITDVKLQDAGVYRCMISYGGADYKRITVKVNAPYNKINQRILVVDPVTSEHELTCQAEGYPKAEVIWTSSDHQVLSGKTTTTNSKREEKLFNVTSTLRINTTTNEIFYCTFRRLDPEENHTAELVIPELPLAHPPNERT

B1: 抗人PDL1纳米抗体 Nb2 (VHH)
VHH: QVQLQESGGGSVQAGGSLRLSCIASGVDYNSRTDRMAWFRQVPGKEREGVAAIYTYNNRTYYADSVKGRFTISQDIGKNTVYLQMNSLEPEDTATYYCARDWRFSSGMLDKNMYKYWGQGTQVTVSS
notes: Expressed from pMECS in E. coli TG1, Ni-purified; also called 抗PDL1(Nb2)纳米抗体; not shown: C-terminal HA and His tags from the pMECS vector
Ka: 933000 M⁻¹

— patent publication CN116023492A (XINJIANG YOUMAI BIOTECHNOLOGY CO LTD, dated 2023)
